Results as given in paper PMC11666439.

Assays:
[1] = biological target: ACE-2-Fc fusion protein (human) (UniProt Q9BYF1); assay: BLI
[2] = biological target: SARS-CoV-2 spike wt (in-house) (SARS-CoV-2) (UniProt P0DTC2); assay: ELISA

Chain of UniProt Q9BYF1 (Q9BYF1 18-740): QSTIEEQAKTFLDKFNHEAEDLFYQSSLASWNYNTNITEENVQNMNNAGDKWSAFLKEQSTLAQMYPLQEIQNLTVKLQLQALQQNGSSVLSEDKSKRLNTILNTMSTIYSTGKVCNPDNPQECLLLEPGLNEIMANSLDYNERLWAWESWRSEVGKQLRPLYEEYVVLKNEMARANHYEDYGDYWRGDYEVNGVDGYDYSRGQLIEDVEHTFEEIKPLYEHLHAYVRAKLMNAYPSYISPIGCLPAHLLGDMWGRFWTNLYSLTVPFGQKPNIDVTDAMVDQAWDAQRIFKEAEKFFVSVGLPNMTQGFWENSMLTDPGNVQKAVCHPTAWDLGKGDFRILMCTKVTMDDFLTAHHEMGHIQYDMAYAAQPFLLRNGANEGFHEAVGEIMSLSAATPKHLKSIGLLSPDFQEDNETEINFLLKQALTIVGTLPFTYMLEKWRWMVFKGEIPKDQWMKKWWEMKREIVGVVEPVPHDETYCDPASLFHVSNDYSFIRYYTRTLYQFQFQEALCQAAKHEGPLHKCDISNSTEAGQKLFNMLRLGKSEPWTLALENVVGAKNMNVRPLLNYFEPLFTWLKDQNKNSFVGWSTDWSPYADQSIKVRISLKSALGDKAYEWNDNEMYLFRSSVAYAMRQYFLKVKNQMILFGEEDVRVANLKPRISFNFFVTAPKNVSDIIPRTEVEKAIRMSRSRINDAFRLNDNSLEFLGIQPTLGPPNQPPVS

| Substance | Kd [1] | fold improvement of kdis compared to the wt [1] | koff [1] | kon [1] | fold increase of binding after total IgG depletion of vaccinee plasma [2] |
| --- | --- | --- | --- | --- | --- |
| SARS-CoV-2 RBD wt (domain or fragment) | 23.4 nM | – | – | – | – |
| SARS-CoV-2 RBD Omicron BA.2 (domain or fragment) | 4.47 nM | 1.76 fold | 0.0032 s⁻¹ | 716000 M⁻¹ s⁻¹ | – |
| native MBL from sera (from UniProt P11226 21-248) (natural protein) | – | – | – | – | 2.6 fold |
